Like-named read-outs stand apart in the source and are kept apart here.

Assay [1] concerns the target T1, GKRP-P446L (Homo sapiens, UniProt Q14397, P446L).
T1 construct: FLAG; made in house; host or cells: Escherichia coli
T1 sequence (Q14397 1-625 P446L): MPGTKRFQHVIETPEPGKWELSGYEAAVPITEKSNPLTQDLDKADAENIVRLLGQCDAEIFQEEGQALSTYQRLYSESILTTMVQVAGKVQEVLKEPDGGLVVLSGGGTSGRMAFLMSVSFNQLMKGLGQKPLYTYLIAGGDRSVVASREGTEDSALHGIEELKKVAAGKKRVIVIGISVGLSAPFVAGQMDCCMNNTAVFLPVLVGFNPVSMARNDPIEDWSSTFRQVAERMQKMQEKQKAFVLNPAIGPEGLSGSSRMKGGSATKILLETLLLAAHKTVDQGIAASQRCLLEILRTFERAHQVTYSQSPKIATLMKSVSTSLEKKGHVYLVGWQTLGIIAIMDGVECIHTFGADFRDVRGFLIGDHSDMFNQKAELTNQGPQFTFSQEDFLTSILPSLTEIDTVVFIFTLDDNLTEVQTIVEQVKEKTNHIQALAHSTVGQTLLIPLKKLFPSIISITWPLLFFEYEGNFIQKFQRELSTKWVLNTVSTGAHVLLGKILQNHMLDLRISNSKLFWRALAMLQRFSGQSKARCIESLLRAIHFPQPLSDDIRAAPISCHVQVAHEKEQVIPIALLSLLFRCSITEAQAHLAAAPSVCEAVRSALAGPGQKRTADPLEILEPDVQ
Kind of assay: Ligand binding to free GKRP-P446L measured by TF of GKRP.

For assay [2], the target named is T2, GKRP-P446L (Homo sapiens, UniProt P35557+Q14397, P446L/W167F/W257F/W99R).
T2 construct: FLAG; GST (cleaved yes); made in house; host or cells: Escherichia coli
T2 sequence (Q14397 1-625 P446L): T1 sequence (Q14397 1-625 P446L)
T2 sequence (P35557 1-465 W99R/W167F/W257F): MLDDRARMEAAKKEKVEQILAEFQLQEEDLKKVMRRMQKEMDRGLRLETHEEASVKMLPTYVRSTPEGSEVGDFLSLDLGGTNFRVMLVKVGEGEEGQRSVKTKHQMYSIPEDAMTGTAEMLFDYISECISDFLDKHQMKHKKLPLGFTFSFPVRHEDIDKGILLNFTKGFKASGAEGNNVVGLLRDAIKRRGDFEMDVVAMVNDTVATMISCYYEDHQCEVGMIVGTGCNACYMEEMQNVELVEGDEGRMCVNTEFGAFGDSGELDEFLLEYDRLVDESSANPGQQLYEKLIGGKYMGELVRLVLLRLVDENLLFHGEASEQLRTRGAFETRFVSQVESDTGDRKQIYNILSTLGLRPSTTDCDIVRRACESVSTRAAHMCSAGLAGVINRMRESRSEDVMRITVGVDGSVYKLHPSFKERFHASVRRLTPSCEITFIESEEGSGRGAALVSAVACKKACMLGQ
Kind of assay: Titration of GKRP-P446L with GK-W99R/W167F/W257F (GK–GKRP complex assembly) by TF. The format is binding. Set-up: ΔF: scale not given here. The conditions noted are these: for Kd: read-out: S0.5 of GK. As to the method: Spectra were measured with a Fluorolog-3-21 Jobin-Yvon Spex Instrument SA equipped with a 450 W Xenon lamp for excitation and a cooled R2658P Hamamatsu photomultiplier tube for detection. For all measurements, 90° geometry was employed and 295 nm excitation wavelengths were used to observe fluorescence emission in the 300–500 nm range. For TF, spectra slit width was set to provide a bandpath of 3 nm for excitation and 3 nm for emission. Spectra were corrected for instrumental response using Spex instrument software. A thermostatically controlled cell holder maintained sample temperature at 20°C. A thermocoupler was used to measure sample temperature. The buffer used contained 20 mM phosphate, 50 mM KCl, 1 mM EDTA and 1 mM DTT (pH 7.2).
Fluorescence data were obtained via the stepwise addition of the appropriate amount of non-fluorescent GK-W99R/W167F/W257F to GKRP in a fluorescence cuvette. […] The change in GKRP protein fluorescence during titration was also measured using time-dependent scans. A manual procedure was used such that a typical titration with 10–12 additions required 20–25 min to perform. The same buffer as described above was routinely used unless stated otherwise. The bandpath was 0.5 nm at 295 nm for excitation and 12 nm at 340 nm for emission. […] For some graphical presentations the linear form of the Hill equation was used: log[F/(Fsat−F)]=H log x−H log KD [46].

Setting [3] is: 0.3 μM GKRP-P446L, ligand alone, 20°C.
Where [4] appears, read: GK titration with 20 μM GKA, 20°C.
[5] abbreviates: GK titration with 500 μM F1P, 20°C.
Setting [6] is: GK titration with 500 μM F6P, sigmoidal fit, 20°C.
Setting [7] is: GK titration with 500 μM F6P, simple saturation fit (H = 1).
The mark [8] stands for this setting: GK titration with 100 mM D-glucose and 20 μM GKA, 20°C.
The mark [9] stands for this setting: GK titration with 100 mM D-glucose and 500 μM F1P, 20°C.
[10] abbreviates: GK titration with 100 mM D-glucose and 500 μM F6P, 20°C.
Setting [11] is: GK titration with 100 mM D-glucose, 20°C.
[12] abbreviates: GK titration, no further agent, sigmoidal fit, 20°C.
The mark [13] stands for this setting: GK titration, no further agent, simple saturation fit (H = 1).

Take `OC[C@H]1OC(O)[C@H](O)[C@@H](O)[C@@H]1O` (stereo partly drawn) [D-Glucose, D-glucose]: the Kd on GKRP-P446L [1] (0.3 μM GKRP-P446L, D-glucose alone, 20°C, read-out: S0.5) came out at 27 mM. At GKRP-P446L [1] (setting [3]), the “H (Hill number)” value is listed as 1.49 and the “ΔF (relative fluorescence change at 340 nm)” value is −0.06. Besides, the “effect on the TF signal of GKRP-P446L” value on GKRP-P446L [1] (ligand alone) is reported as “lowered the TF signal”.

B1: GK-W99R/W167F/W257F: tryptophan residue-free, non-fluorescent recombinant human β-cell GK made for the present study (protein)
chain: T2 sequence (P35557 1-465 W99R/W167F/W257F)
modifications: left off: GST, end not stated, cleaved
notes: tryptophan residue-free, non-fluorescent recombinant human β-cell GK made for the present study
For the molecule B1, the H with GKRP-P446L [2] (setting [4]) turned out to be 2.17; in the assay with GKRP-P446L [2] (setting [5]), 2.84; with GKRP-P446L [2] (setting [6]) it was 1.31; in the assay with GKRP-P446L [2] (GK titration with 500 μM F6P, simple saturation fit), 1; in the assay with GKRP-P446L [2] (setting [8]) it was 2.68; with GKRP-P446L [2] (setting [9]), 2.77. For the same molecule, the H worked out at 2.45 in the assay with GKRP-P446L [2] (setting [10]); 2.94 with GKRP-P446L [2] (setting [11]); 1.86 with GKRP-P446L [2] (setting [12]); 1 in the assay with GKRP-P446L [2] (GK titration, no further agent, simple saturation fit). In addition, the ΔF is given as 0.43 with GKRP-P446L [2] (setting [4]); 0.41 in the assay with GKRP-P446L [2] (setting [5]); 0.44 with GKRP-P446L [2] (setting [6]); 0.55 in the assay with GKRP-P446L [2] (setting [7]); 0.42 with GKRP-P446L [2] (setting [8]); 0.44 with GKRP-P446L [2] (setting [9]). Further, the ΔF in the assay with GKRP-P446L [2] (setting [10]) is given as 0.42; with GKRP-P446L [2] (setting [11]), 0.43; in the assay with GKRP-P446L [2] (setting [12]), 0.44; with GKRP-P446L [2] (setting [13]), 0.82. For the same molecule, the Kd worked out at 2590 nM with GKRP-P446L [2] (setting [4]); 2950 nM in the assay with GKRP-P446L [2] (setting [5]); 1660 nM in the assay with GKRP-P446L [2] (setting [6]); 2450 nM in the assay with GKRP-P446L [2] (setting [7]); 3550 nM with GKRP-P446L [2] (setting [8]); 2970 nM with GKRP-P446L [2] (setting [9]). Further, the Kd with GKRP-P446L [2] (setting [10]) was 2840 nM; with GKRP-P446L [2] (setting [11]), 3380 nM; with GKRP-P446L [2] (setting [12]), 2050 nM; with GKRP-P446L [2] (setting [13]), 5230 nM. Also, in the assay with GKRP-P446L [2] (range under all conditions tested), the “maximal ΔTF value of GKRP-P446L” value is listed as 0.41–0.44. The “increase of the TF of GKRP-P446L” value with GKRP-P446L [2] (saturating GK (5 μM), 0.3 μM GKRP) is 44%.

The record behind these values is publication PMC4109836, “Analysis of the co-operative interaction between the allosterically regulated proteins GK and GKRP using tryptophan fluorescence” (Biochemical Journal, 2014).
